Several values for one entry are separate records, joined by “and”; a condition that tells them apart may be missing. Identical values can stand only once. Like-named read-outs stand apart in the source and are kept apart here. Ends that are not written are not given here. * marks the point of attachment. Cam = NC(=O)C*
Columns and labels:
[1] = biological target: T1, human complement component C5 (human, UniProt P01031 19-673; P01031 678-1676); experiment: phage ELISA, OD 630 nm, anti-M13 HRP; C5 coated directly and biotinylated C5 captured on streptavidin
T1 construct: mature; Mature C5 is a disulphide-linked beta and alpha chain cut from one precursor; Terbium-labelled in the FRET assays, biotinylated in part of the phage ELISA; also called human C5; C5-Tb

[2] = biological target: T2, human complement component C3 (human, UniProt P01024 23-667; P01024 672-1663); experiment: SPR (Biacore), C3, mean of n=3
T2 construct: also called biotinylated C3

[3] = biological target: T1, human complement component C5; experiment: SPR (Biacore), C5, mean of n=3
[4] = biological target: T3, human serum albumin (human, UniProt P02768 25-609); experiment: monoclonal phage ELISA
T3 construct: also called HSA

[5] = biological target: T2, human complement component C3; experiment: counter screen
[6] = biological target: T4, ovalbumin (UniProt P01012 2-386); experiment: counter screen
T4 sequence (looked up): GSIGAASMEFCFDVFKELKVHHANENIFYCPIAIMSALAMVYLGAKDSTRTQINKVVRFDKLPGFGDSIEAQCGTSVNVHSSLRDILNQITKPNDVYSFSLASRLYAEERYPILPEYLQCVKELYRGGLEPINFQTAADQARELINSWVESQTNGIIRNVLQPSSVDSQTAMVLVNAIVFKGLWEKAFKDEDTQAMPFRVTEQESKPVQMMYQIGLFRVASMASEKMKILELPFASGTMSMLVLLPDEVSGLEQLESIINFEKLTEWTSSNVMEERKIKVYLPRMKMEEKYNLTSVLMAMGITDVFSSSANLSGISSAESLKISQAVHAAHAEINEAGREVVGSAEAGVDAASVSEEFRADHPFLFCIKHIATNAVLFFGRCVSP

[7] = biological target: T1, human complement component C5; experiment: SPR single-cycle kinetics (Biacore 8K), C5 amine-coupled to a CM5 chip
[8] = biological target: T1, human complement component C5; experiment: cell-based or functional assay
[9] = biological target: T1, human complement component C5; experiment: cell-based or functional assay; remark: listed apart in the source
[10] = biological target: T1, human complement component C5; experiment: cell-based or functional assay; remark: listed apart in the source
[11] = biological target: T1, human complement component C5; experiment: cell-based or functional assay; remark: listed apart in the source
[12] = biological target: T1, human complement component C5; experiment: SPR single-cycle kinetics, human C5, n=1
[13] = biological target: T1, human complement component C5; experiment: SPR multi-cycle kinetics, human C5 immobilised, mean of n=3
[14] = biological target: T2, human complement component C3; experiment: phage ELISA, OD 630 nm, anti-M13 HRP; C3 coated directly and biotinylated C3 captured on streptavidin
[15] = biological target: T1, human complement component C5; experiment: cell-based or functional assay; remark: listed apart in the source
[16] = biological target: T1, human complement component C5; experiment: SPR, cysteines reduced and capped with iodoacetamide; K92, cysteines reduced and capped with iodoacetamide
[17] = biological target: T1, human complement component C5; experiment: cell-based or functional assay; remark: listed apart in the source
[18] = biological target: T1, human complement component C5
[19] = biological target: T1, human complement component C5; remark: listed apart in the source
[20] = biological target: T1, human complement component C5; experiment: SPR single-cycle kinetics
[21] = biological target: T1, human complement component C5; experiment: cell-based or functional assay; remark: listed apart in the source
[22] = biological target: T1, human complement component C5; experiment: cell-based or functional assay; remark: listed apart in the source
[23] = biological target: T1, human complement component C5; experiment: cell-based or functional assay; remark: listed apart in the source
[24] = biological target: T1, human complement component C5; experiment: cell-based or functional assay; remark: listed apart in the source
[25] = biological target: T5, mouse C5 (mouse, UniProt P06684 19-674; P06684 679-1680); experiment: SPR single-cycle kinetics, n=1
T5 construct: mature; also called mouse C5 protein

[26] = biological target: T6, rabbit C5 (rabbit); experiment: SPR single-cycle kinetics, n=1
T6 construct: mature; also called rabbit C5 protein

[27] = biological target: T1, human complement component C5; experiment: cell-based or functional assay; remark: listed apart in the source
[28] = biological target: T1, human complement component C5; experiment: SPR, cysteines reduced and capped with iodoacetamide; K57, cysteines reduced and capped with iodoacetamide

T2 sequence (P01024 23-667 limits assumed, chain 1 of 2): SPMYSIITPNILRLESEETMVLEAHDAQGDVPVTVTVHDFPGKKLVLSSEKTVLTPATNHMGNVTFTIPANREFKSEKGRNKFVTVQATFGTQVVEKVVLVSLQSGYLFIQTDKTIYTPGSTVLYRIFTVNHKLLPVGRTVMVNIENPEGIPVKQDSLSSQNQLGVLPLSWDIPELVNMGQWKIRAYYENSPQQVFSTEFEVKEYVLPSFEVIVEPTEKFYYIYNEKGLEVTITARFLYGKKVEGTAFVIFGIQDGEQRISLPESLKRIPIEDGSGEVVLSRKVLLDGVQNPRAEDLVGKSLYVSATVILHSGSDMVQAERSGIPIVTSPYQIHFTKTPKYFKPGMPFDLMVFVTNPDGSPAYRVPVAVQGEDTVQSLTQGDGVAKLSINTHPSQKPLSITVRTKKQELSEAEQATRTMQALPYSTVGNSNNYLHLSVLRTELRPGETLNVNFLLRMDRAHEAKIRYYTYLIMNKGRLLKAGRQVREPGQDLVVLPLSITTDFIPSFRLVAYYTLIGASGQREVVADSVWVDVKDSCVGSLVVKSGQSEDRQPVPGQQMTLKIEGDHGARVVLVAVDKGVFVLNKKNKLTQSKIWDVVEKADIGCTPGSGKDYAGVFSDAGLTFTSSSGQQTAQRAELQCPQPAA
T2 sequence (P01024 672-1663 limits assumed, chain 2 of 2): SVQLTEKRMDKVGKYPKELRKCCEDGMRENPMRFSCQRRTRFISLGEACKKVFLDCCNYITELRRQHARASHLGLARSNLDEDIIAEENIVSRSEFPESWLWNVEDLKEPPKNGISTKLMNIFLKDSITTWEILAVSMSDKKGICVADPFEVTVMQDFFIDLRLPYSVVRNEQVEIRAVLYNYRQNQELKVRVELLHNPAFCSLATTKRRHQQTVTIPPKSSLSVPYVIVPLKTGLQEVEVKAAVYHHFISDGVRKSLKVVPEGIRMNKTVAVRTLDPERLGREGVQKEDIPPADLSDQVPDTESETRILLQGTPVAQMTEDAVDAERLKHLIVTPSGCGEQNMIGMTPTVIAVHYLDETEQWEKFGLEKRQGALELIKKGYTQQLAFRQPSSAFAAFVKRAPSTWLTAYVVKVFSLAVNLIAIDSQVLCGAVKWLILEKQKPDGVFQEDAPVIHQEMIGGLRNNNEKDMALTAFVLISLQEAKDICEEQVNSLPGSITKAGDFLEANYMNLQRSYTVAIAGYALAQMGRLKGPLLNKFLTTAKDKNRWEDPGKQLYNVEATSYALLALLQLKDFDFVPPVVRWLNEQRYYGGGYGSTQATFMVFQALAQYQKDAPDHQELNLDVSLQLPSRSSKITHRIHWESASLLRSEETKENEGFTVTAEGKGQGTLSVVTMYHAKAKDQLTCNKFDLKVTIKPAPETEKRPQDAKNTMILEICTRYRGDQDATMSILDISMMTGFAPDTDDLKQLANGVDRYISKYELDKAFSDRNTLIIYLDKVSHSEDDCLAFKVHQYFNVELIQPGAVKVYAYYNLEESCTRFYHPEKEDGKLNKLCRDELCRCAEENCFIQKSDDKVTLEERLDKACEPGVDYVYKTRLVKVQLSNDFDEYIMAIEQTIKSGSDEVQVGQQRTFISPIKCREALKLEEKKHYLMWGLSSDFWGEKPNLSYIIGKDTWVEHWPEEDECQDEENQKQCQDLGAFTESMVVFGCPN
T5 sequence (P06684 19-674 limits assumed, chain 1 of 2): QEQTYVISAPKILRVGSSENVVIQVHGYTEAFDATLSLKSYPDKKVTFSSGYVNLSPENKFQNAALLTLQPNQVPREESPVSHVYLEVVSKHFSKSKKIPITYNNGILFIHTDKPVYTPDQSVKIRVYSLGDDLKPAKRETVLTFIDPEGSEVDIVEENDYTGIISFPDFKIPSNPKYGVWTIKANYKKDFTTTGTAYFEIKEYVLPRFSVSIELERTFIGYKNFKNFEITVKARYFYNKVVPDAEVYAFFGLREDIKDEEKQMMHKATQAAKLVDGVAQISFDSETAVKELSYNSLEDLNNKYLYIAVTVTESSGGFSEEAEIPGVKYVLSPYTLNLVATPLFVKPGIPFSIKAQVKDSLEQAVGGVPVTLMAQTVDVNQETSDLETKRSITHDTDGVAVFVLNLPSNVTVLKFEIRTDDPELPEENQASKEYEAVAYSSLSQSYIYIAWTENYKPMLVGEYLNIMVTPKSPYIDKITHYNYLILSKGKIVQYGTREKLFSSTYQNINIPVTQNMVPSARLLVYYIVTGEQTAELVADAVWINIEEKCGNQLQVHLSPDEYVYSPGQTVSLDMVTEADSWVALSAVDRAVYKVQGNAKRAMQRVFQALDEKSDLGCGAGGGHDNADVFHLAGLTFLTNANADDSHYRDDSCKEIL
T5 sequence (P06684 679-1680 limits assumed, chain 2 of 2): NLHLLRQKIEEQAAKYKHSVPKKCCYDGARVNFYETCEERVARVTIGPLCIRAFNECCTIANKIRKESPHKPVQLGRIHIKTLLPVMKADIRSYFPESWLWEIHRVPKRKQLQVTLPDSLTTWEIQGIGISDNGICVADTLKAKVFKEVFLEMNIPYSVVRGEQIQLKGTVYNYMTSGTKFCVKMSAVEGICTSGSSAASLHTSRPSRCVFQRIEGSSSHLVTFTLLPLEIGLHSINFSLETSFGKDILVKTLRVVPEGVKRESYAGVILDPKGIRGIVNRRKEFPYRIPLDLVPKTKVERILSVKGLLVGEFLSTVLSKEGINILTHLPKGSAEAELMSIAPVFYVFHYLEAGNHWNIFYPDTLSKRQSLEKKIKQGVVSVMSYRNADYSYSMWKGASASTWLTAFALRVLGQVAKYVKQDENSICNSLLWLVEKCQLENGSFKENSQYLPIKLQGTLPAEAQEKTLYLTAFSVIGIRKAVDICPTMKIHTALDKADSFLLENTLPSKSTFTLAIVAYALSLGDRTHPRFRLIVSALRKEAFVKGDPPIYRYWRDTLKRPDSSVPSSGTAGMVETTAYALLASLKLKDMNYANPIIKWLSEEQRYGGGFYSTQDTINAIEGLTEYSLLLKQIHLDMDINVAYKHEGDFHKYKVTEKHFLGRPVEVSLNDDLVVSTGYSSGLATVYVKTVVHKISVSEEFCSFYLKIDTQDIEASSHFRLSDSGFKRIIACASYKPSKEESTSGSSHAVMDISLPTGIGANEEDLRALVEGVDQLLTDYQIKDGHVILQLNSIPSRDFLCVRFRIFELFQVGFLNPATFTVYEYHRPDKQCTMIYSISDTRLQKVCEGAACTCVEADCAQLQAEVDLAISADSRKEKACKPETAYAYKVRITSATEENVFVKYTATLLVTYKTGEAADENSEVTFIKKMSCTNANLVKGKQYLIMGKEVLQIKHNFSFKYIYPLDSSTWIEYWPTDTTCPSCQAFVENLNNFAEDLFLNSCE
T1 sequence (P01031 19-673 limits assumed, chain 1 of 2): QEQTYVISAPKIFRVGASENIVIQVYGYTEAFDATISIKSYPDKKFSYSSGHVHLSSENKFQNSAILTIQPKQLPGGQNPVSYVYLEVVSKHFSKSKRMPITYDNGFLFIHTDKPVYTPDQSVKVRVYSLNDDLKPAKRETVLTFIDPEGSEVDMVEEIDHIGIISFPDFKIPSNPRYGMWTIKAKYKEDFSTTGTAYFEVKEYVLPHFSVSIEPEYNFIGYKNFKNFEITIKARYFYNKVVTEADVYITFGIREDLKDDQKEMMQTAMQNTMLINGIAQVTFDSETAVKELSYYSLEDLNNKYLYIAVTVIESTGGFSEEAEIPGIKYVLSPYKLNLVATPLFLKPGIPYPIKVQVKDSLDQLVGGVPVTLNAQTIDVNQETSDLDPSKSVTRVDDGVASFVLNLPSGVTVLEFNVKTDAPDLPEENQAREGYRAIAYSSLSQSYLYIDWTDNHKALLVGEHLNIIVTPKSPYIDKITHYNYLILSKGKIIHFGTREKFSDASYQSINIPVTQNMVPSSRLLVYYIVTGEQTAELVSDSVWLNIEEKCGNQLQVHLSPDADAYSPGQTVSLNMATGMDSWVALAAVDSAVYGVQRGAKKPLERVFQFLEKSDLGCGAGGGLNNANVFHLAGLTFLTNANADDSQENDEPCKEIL
T1 sequence (P01031 678-1676 limits assumed, chain 2 of 2): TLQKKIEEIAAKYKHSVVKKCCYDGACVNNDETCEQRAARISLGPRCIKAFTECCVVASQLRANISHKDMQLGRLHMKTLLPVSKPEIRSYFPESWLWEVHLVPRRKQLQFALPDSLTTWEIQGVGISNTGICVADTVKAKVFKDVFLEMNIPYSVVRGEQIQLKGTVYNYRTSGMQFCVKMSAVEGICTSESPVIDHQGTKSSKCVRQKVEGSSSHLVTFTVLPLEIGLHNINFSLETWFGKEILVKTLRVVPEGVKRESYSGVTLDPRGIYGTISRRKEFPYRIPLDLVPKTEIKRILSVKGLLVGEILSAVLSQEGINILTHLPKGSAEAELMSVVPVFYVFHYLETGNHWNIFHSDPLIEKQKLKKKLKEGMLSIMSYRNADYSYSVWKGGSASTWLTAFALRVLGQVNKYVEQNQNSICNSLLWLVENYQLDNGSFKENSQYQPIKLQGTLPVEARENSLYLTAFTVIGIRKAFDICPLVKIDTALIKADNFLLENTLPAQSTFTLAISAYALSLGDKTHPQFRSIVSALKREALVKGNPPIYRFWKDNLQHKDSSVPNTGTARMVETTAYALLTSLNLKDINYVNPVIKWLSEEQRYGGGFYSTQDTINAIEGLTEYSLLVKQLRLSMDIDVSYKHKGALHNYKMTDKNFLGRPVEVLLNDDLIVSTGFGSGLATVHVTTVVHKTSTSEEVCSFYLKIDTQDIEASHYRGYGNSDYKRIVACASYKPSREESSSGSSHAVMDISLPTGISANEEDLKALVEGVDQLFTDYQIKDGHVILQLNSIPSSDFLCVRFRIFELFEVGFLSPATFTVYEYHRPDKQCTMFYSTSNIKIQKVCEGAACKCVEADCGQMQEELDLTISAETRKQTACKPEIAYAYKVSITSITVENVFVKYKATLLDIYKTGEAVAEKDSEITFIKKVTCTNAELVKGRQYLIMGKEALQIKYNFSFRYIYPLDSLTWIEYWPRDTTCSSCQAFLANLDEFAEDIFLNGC

B1: hC3nb1 VHH displayed on M13 phage (VHH)
VHH: QVQLVETGGGLVQAGGSLRLSCAASGSIFSLNAMGWFRQAPGKEREFVATINRSGGRTYYADSVKGRFTISRDNGKNMVYLQMHSLKPEDTAIYYCAAGTGWSPQTDNEYNYWGQGTQVTVSS
notes: not shown: poly-histidine, c-myc tag, M13 pIII
[1]
  binding result: no binding

B2: hC3nb1-K57 C-term with C-terminal single-chain Fc tag (bispecific antibody, V domains shown, not shown: a dimerising Fc or GST)
VH: B1 VHH
notes: also called hC3Nb1 C-Term
[2]
  Kd: 0.302 nM
[3]
  Kd: 0.271 nM

B3: ultralong CDR-H3 of SEQ ID NO: 498 displayed on M13 phage (other)
chain: TTVHQQTHQDQTCPDGYTRTNYYCRRDGCGSWCNGAERQQPCIRGPCCCDLTYRTAYEYHVET
notes: as for B1
[4]
  binding result: binds

B4: K60 knob domain peptide cleaved from the 645 Fab (peptide)
peptide: GSKSCREGYIDGGGCCLPGSCRGCACSYYDWLKCPRDCRGTSEEENLYFQ
notes: Recombinant, cut out by TEV protease
[5]
  binding result: no binding
[6]
  binding result: no binding
[7]
  binding result: no binding

B5: K8 knob domain peptide, chemically synthesised, free energy method (peptide)
peptide: VCPDGFNWGYGCAAGSSRFCTRHDWCCYDERADSHTYGFCTGNRV
modifications: disulfide (positions not given here); not fully specified
notes: Disulphides formed in glutathione redox buffer; also called K8chemFE; K8chem
[8]
  Classical pathway C5b deposition ELISA, average Emax: 47.3%
  Classical pathway C5b deposition ELISA, geomean IC50: 9.8 nM
[9]
  Alternative pathway C5b neoepitope ELISA, average Emax: 91.5%
  Alternative pathway C5b neoepitope ELISA, geomean IC50: 46.1 nM
[10]
  classical pathway complement ELISA (C5b deposition); IC50 (read off the curve): ~30 nM
[11]
  alternative pathway complement ELISA (C5b deposition); IC50 (read off the curve): ~80 nM
[12]
  Kd: 12.1 nM
  koff: 0.000397 s⁻¹
  kon: 32900 M⁻¹ s⁻¹
[13]
  Kd: 5.46 nM
  koff: 0.000385 s⁻¹
  kon: 70500 M⁻¹ s⁻¹

B6: hC3nb1-K149 (K149 ultralong CDR-H3 in framework 3 of hC3nb1) displayed on M13 phage (bispecific antibody)
VHH: QVQLVETGGGLVQAGGSLRLSCAASGSIFSLNAMGWFRQAPGKEREFVATINRSGGRTYYADSVKGRFTISRDNGTSVLQSTKPQKSCPDGFSYRSWDDFCCPMVGRCLAPRNTYTTEFTIEAKNMVYLQMHSLKPEDTAIYYCAAGTGWSPQTDNEYNYWGQGTQVTVSS
notes: also called hC3nb1-K149 CDR-H3; not shown: poly-histidine, c-myc tag, M13 pIII
[14]
  binding result: no binding
[1]
  binding result: no binding

B7: hC3nb1-K57 loop 2 delta proline with C-terminal single-chain Fc tag (bispecific antibody, V domains shown, not shown: a dimerising Fc or GST)
VH: WFRQASGGGSGCPPGYKSGVDCSPGSECKWGCYAVDGRRYGGYGADSGVSGGGSKEREFVATINRSGGRTYYADSVKGRFTISRDNGKNMVYLQMHSLKPEDTAIYYCAAGTGWSPQTDNEYNYWGQGTQVTVSS
notes: also called hC3Nb1Loop2ΔP
[3]
  Kd: 0.864 nM
[15]
  classical pathway C5b neoepitope ELISA; IC50 (read off the curve): ~20 nM

B8: K92, reduced and cysteines capped with iodoacetamide (peptide)
peptide: TC(Cam)PEGWSEC(Cam)GVAIYGYEC(Cam)GRWGC(Cam)GHFLNSGPNISPYVST
notes: also called K92 (loss of disulphide bonds)
[16]
  Kd: 2000 nM

B9: K92chemFE knob domain peptide (peptide)
peptide: TCPEGWSECGVAIYGYECGRWGCGHFLNSGPNISPYVST
notes: also called chemical K92
[11]
  alternative pathway complement ELISA (C5b deposition); IC50 (read off the curve): ~70 nM
[17]
  alternative pathway haemolysis assay; IC50 (read off the curve): ~200 nM
[13]
  Kd: 0.411 nM
  koff: 0.000101 s⁻¹
  kon: 283000 M⁻¹ s⁻¹

B10: K8 knob domain peptide cleaved from the 645 Fab (peptide)
peptide: GSVCPDGFNWGYGCAAGSSRFCTRHDWCCYDERADSHTYGFCTGNRVENLYFQ
notes: as for B4
[18]
  Kd: 17.3 nM
  koff: 0.000357 s⁻¹
  kon: 26100 M⁻¹ s⁻¹
[19]
  IC50: 20.7 nM and 31.2 nM and 26.1 nM and 25.6 nM
  Ki: 12.8 nM
[5]
  binding result: no binding
[6]
  binding result: no binding
[20]
  Kd: < 40 nM
[21]
  Inhibition of classical pathway mediated C5a release, geomean IC50: 9.9 nM
[22]
  Inhibition of alternative pathway mediated C5a release, average Emax: 71.8%
  Inhibition of alternative pathway mediated C5a release, geomean IC50: 150 nM
[23]
  Inhibition of classical pathway mediated bacterial lysis, geomean IC50: 16900 nM
[24]
  Inhibition of alternative pathway mediated bacterial lysis, average Emax: 98.1%
  Inhibition of alternative pathway mediated bacterial lysis, geomean IC50: 25800 nM
[25]
  Kd: 4.69 nM
  koff: 0.00019 s⁻¹
  kon: 40400 M⁻¹ s⁻¹
[26]
  Kd: 9.12 nM
  koff: 0.000296 s⁻¹
  kon: 32400 M⁻¹ s⁻¹

B11: hC3nb1-K57 loop 1 with C-terminal single-chain Fc tag (bispecific antibody, not shown: a dimerising Fc or GST)
VHH: QVQLVETGGGLVQASGGGSGCPPGYKSGVDCSPGSECKWGCYAVDGRRYGGYGADSGVSGGGSGSLRLSCAASGSIFSLNAMGWFRQAPGKEREFVATINRSGGRTYYADSVKGRFTISRDNGKNMVYLQMHSLKPEDTAIYYCAAGTGWSPQTDNEYNYWGQGTQVTVSS
[27]
  alternative pathway C5b neoepitope ELISA; IC50 (read off the curve): ~200 nM
[15]
  classical pathway C5b neoepitope ELISA; IC50 (read off the curve): ~50 nM

B12: K92 knob domain peptide cleaved from the 645 Fab (peptide)
peptide: GSGSVTCPEGWSECGVAIYGYECGRWGCGHFLNSGPNISPYVTTGSENLYFQ
notes: as for B4
[18]
  Kd: < 0.85 nM
  koff: 0.000113 s⁻¹
  kon: 124000 M⁻¹ s⁻¹
[19]
  IC50: 7.6 nM and 7.4 nM and 7.3 nM
  Ki: 3.7 nM
[5]
  binding result: no binding
[6]
  binding result: no binding
[20]
  Kd: < 40 nM
[22]
  Inhibition of alternative pathway mediated C5a release, average Emax: 43.3%
  Inhibition of alternative pathway mediated C5a release, geomean IC50: 43.3 nM
[24]
  Inhibition of alternative pathway mediated bacterial lysis, average Emax: 91%
  Inhibition of alternative pathway mediated bacterial lysis, geomean IC50: 2460 nM
[25]
  Kd: 63.1 nM
  koff: 0.00487 s⁻¹
  kon: 77200 M⁻¹ s⁻¹
[26]
  Kd: 76.6 nM
  koff: 0.00466 s⁻¹
  kon: 60800 M⁻¹ s⁻¹

B13: K57, reduced and cysteines capped with iodoacetamide (peptide)
peptide: GC(Cam)PPGYKSGVDC(Cam)SPGSEC(Cam)KWGC(Cam)YAVDGRRYGGYGADSGVGS
notes: also called K57 (loss of disulphide bonds)
[28]
  Kd: 76 nM

Reference: patent US20240024520A1 (UCB, published 2024)
